Test [1] has as its target T1, MSLN on OVCAR8 (MSLN^high) and other cancer cell lines (UniProt Q13421 296-598).
T1 construct: whole, on cells; Endogenous surface MSLN; also called MSLN^high OVCAR8 cells; MSLN^low SKOV3 and HT29 cells
Description: flow cytometry on OVCAR8 cells, detected with A647-labelled anti-human Fc mAb. The procedure:
Next, the effect of MSLN binding affinity was investigated. 100,000 OVCAR8 (MSLN^high) cells were treated with the indicated concentrations of the indicated test articles. […] Further, XENP32852 and XENP32853 which differ only in CD3 binding affinity have identical binding to OVCAR8 cells confirming that avid binding is due to the MSLN binding domain.
(In flow cytometry, cells or beads pass a laser one at a time.)

Test [2] addresses T2, human MSLN antigen (human, UniProt Q13421 296-580, limits assumed).
T2 construct: Soluble antigen for BLI; also called Mesothelin; MESO
Description: Octet BLI on human MSLN antigen (Example 2B(a)); KD quoted in the FIG. 35 legend. From the text: (§1) Variants of MESO-C were engineered by introducing point substitutions into the variable heavy region (VH) and the variable light region (VL) to generate 11 VH variants and 16 VL variants (sequences for which are depicted in FIG. 18 as H1.1-H1.13 and in FIG. 19 as L1.1-L1.18). An additional 4 VL variants were generated by combining useful point substitutions (sequences for which are depicted in FIG. 19 as L1.19-L1.22). WT and variant variable heavy regions were paired with WT and variant variable light regions to generate variant variable regions (Fvs) which were produced in the context of anti-MSLN×anti-CD3 bispecific antibodies. The bispecific antibodies were screened for MSLN binding affinity using Octet®, a BioLayer Interferometry (BLI)-based method. Experimental steps for Octet® generally include the following: Immobilization (capture of ligand to a biosensor); Association (dipping of ligand-coated biosensors into wells containing the analyte); and Dissociation (returning of biosensors to well containing buffer). In an initial screening, anti-human Fc sensors were used to capture the bispecific mAbs and dipped into human MSLN antigen (one concentration to screen large library). The resulting dissociation constant of illustrative variants (KD), association rate (kₐ), dissociation rate (kd), as well as sensorgram response are depicted in FIG. 20. In further screening of favorite variants identified in the initial screen (and combination variants), bispecific mAbs were dipped into multiple concentrations of human MSLN antigen, data for which are depicted in FIG. 21 (from various screens).
Background: BLI is a label-free optical method that tracks binding on a fibre tip over time.

Test [3] addresses T2, human MSLN antigen. In words: Octet BLI; bsAb on anti-human Fc sensor, human MSLN as analyte, several concentrations.
From the text: as §1

Another test deals with T3, cyno MSLN (Macaca fascicularis (cynomolgus)).
T3 construct: soluble antigen for Octet; also called cynomolgus MSLN
In words: Octet BLI; bsAb on anti-human Fc sensor, cyno MSLN as analyte, one concentration.

Test [4] addresses T2, human MSLN antigen. Description: Octet BLI; bsAb on anti-human Fc sensor, human MSLN as analyte, one concentration.
From the text: as §1

Where a chain is given by its changes, count along the chain named. In names and notes the source's numbering stands.

14 molecules from patent publication US20240279356A1 (Xencor, published 2024) can be followed below.

T2 sequence (Q13421 other isoform, or with tags, fused parts or gaps limits assumed): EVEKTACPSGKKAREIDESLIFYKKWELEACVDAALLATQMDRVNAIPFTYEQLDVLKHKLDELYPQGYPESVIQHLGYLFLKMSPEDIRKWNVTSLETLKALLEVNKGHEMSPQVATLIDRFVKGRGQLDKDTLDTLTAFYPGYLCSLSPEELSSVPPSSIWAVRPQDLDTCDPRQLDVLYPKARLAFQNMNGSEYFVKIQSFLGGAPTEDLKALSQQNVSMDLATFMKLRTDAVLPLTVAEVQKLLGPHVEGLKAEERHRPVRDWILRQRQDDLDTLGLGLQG
T1 sequence (Q13421 other isoform, or with tags, fused parts or gaps limits assumed): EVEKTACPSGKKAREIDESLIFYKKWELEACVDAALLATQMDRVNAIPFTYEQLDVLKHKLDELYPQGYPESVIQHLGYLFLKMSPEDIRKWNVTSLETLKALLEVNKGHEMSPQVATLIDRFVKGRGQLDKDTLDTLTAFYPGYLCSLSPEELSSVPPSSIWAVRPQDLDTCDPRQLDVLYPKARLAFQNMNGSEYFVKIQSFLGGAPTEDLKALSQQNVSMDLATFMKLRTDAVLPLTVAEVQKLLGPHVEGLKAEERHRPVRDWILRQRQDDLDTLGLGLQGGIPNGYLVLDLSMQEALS

B1: XENP31697 (bispecific antibody)
heavy: QVQLVQSGAEVKKPGASVKVSCKASGYTFTSYWMHWVRQAPGQGLEWMGMIHPNSDNTIYYEKFQGRVTMTVDKSISTAYMELSRLRSDDTAVYYCAIIITPVVPKFDYWGQGTLVTVSSASTKGPSVFPLAPSSKSTSGGTAALGCLVKDYFPEPVTVSWNSGALTSGVHTFPAVLQSSGLYSLSSVVTVPSSSLGTQTYICNVNHKPSDTKVDKKVEPKSCDKTHTCPPCPAPPVAGPSVFLFPPKPKDTLMISRTPEVTCVVVDVKHEDPEVKFNWYVDGVEVHNAKTKPREEEYNSTYRVVSVLTVLHQDWLNGKEYKCKVSNKALPAPIEKTISKAKGQPREPQVYTLPPSREEMTKNQVSLTCDVSGFYPSDIAVEWESDGQPENNYKTTPPVLDSDGSFFLYSKLTVDKSRWEQGDVFSCSVMHEALHNHYTQKSLSLSPGK
scFv-Fc: not shown
light: DIVMTQSPDSLAVSLGERATINCKASHDVGTSVAWYQQKPGQSPKLLIYWASTRHTGVPDRFTGSGSGTDFTLTISSLQAEDVAVYFCQQYSSYPLTFGAGTKLEIKRTVAAPSVFIFPPSDEQLKSGTASVVCLLNNFYPREAKVQWKVDNALQSGNSQESVTEQDSKDSTYSLSSTLTLSKADYEKHKVYACEVTHQGLSSPVTKSFNRGEC
notes: 1+1 Fab-scFv-Fc anti-MSLN x anti-CD3
The EC50 (read off the curve) is the concentration giving half of the maximal effect. The low end stands for greater potency, the high end for weaker potency. One may read the Kd as the concentration at which binding is half-saturated. With B1, in test [1], the “EC50 (read off the curve)” value was around 0.07 µg/mL. Also, the Kd with human MSLN antigen [2] is 0.28 nM.

B2: XENP31717 (bispecific antibody)
heavy 1: B1 heavy
heavy 2: QVQLVQSGAEVKKPGASVKVSCKASGYTFTSYWMHWVRQAPGQGLEWMGMIHPNSDNTIYYEKFQGRVTMTVDKSISTAYMELSRLRSDDTAVYYCAIIITPVVPKFDYWGQGTLVTVSSASTKGPSVFPLAPSSKSTSGGTAALGCLVKDYFPEPVTVSWNSGALTSGVHTFPAVLQSSGLYSLSSVVTVPSSSLGTQTYICNVNHKPSNTKVDKKVEPKSCGGGGSGGGGSQAVVTQEPSLTVSPGGTVTLTCGSSTGAVTTSNYANWVQQKPGKSPRGLIGGTNKRAPGVPARFSGSLLGGKAALTISGAQPEDEADYYCALWYSNHWVFGGGTKLTVLGKPGSGKPGSGKPGSGKPGSEVQLVESGGGLVQPGGSLRLSCAASGFTFSTYAMNWVRQAPGKGLEWVGRIRSKANNYATYYADSVKGRFTISRDDSKNTLYLQMNSLRAEDTAVYYCVRHGNFGDSYVSWFAYWGQGTLVTVSSGGGGSGGGGSKTHTCPPCPAPPVAGPSVFLFPPKPKDTLMISRTPEVTCVVVDVKHEDPEVKFNWYVDGVEVHNAKTKPREEQYNSTYRVVSVLTVLHQDWLNGKEYKCKVSNKALPAPIEKTISKAKGQPREPQVYTLPPSREQMTKNQVKLTCLVKGFYPSDIAVEWESNGQPENNYKTTPPVLDSDGSFFLYSKLTVDKSRWQQGNVFSCSVMHEALHNHYTQKSLSLSPGK
light: B1 light
notes: 2+1 Fab2-scFv-Fc anti-MSLN x anti-CD3
Turning to B2, the “EC50 (read off the curve)” value in test [1] is around 0.04 µg/mL. The Kd with human MSLN antigen [2] came to 0.28 nM.

B3: XENP32948 (bispecific antibody)
heavy: B1 heavy with E62Q
Fab-scFv-Fc: B2 heavy 2 with E62Q
light: B1 light with S92Y
notes: 2+1 Fab2-scFv-Fc
Take B3: the Kd with human MSLN antigen [2] came to 10.2 nM.

B4: XENP32940 (bispecific antibody)
heavy: B1 heavy with M50W
scFv-Fc: not shown
light: B1 light with Y94F
notes: VH M50W, VL Y100F as printed; also called MESO-C H1.3_L1.14; copies: 1 + 1 + 1
By koff is commonly meant the first-order rate constant of dissociation. One may read the kon as the rate constant with which the complex forms. As for B4, in the test with human MSLN antigen [3], the Kd amounted to 246 nM, the Response stood at 0.136, the koff was 0.0816 s⁻¹ and the kon was determined as 332000 M⁻¹ s⁻¹.

B5: XENP32939 (bispecific antibody)
heavy: B1 heavy with M50W
scFv-Fc: not shown
light: B1 light with T31Q
notes: VH M50W, VL T37Q as printed; also called MESO-C H1.3_L1.13; copies: 1 + 1 + 1
On to B5, for which, in the test with human MSLN antigen [3], the equilibrium dissociation constant (Kd) stood at 90.4 nM, the Response turned out to be 0.202, the koff was 0.0383 s⁻¹ and the association rate constant (kon) is 424000 M⁻¹ s⁻¹.

B6: XENP32563 (bispecific antibody)
heavy: B1 heavy
scFv-Fc: not shown
light: B1 light with S32Y
notes: 1+1 Fab-scFv-Fc
In the test with cyno MSLN, B6 returned a Kd of 13.1 nM, a Response of 0.817, an off-rate (koff) of 0.00713 s⁻¹ and a kon of 543000 M⁻¹ s⁻¹. Further, the Kd in the test with human MSLN antigen [2] is around 12.8 nM. In addition, in the test with human MSLN antigen [4], the Response came out at 0.898, the koff turned out to be 0.00672 s⁻¹ and the kon was found to be 527000 M⁻¹ s⁻¹.

B7: XENP32852 (bispecific antibody)
heavy 1: B1 heavy
heavy 2: B2 heavy 2
light: B1 light with S92Y
notes: 2+1 Fab2-scFv-Fc; copies: 1 + 1 + 2
In the case of B7, the “EC50 (read off the curve)” value in test [1] was around 0.06 µg/mL. In the test with human MSLN antigen [2], the Kd turned out to be 3.9 nM.

B8: XENP32938 (bispecific antibody)
heavy: B1 heavy with E62Y
scFv-Fc: not shown
light: B1 light with S92Y
notes: VH E61Y, VL S92Y as printed; also called MESO-C H1.13_L1.9; copies: 1 + 1 + 1
With B8, in the test with human MSLN antigen [3], the Kd was found to be 16.2 nM, the Response turned out to be 0.169, the koff came out at 0.0103 s⁻¹ and the kon came to 635000 M⁻¹ s⁻¹.

B9: XENP32943 (bispecific antibody)
heavy: B1 heavy with M50W
scFv-Fc: not shown
light: B1 light with Y94I
notes: VH M50W, VL Y94I as printed; also called MESO-C H1.3_L1.17; copies: 1 + 1 + 1
On to B9, for which, in the test with human MSLN antigen [3], the Response was 0.0022 and the binding result was “no binding”.

B10: XENP32748 (bispecific antibody)
heavy 1: B1 heavy
heavy 2: B2 heavy 2
light: B1 light with G30L
notes: 2+1 Fab2-scFv-Fc
For B10, the “EC50 (read off the curve)” value in test [1] was around 0.04 µg/mL. Moreover, the Kd in the test with human MSLN antigen [2] was 0.74 nM.

B11: XENP32947 (bispecific antibody)
heavy 1: B1 heavy with M50W
heavy 2: B2 heavy 2 with M50W
light: B1 light
notes: as for B7
With B11, in the test with human MSLN antigen [2], the Kd was determined as 9.2 nM.

B12: XENP32745 (bispecific antibody)
heavy 1: B1 heavy
heavy 2: B2 heavy 2
light: B1 light with D28S
notes: 2+1 Fab2-scFv-Fc
As for B12, in test [1], the “EC50 (read off the curve)” value is around 0.05 µg/mL. Further, in the test with human MSLN antigen [2], the Kd was found to be 0.45 nM.

B13: XENP32751 (bispecific antibody)
heavy: B1 heavy
Fab-scFv-Fc: B2 heavy 2
light: B1 light with S32Y
notes: as for B7
B13: the “EC50 (read off the curve)” value in test [1] is around 0.05 µg/mL. Besides, the Kd in the test with human MSLN antigen [2] was around 12.8 nM.

B14: XENP32937 (bispecific antibody)
heavy: B1 heavy with E62Q
scFv-Fc: not shown
light: B1 light with S92Y
notes: 1+1 Fab-scFv-Fc
B14: in the test with human MSLN antigen [3], the Response came out at 0.183, the koff was determined as 0.00822 s⁻¹ and the kon was found to be 803000 M⁻¹ s⁻¹. Moreover, in the test with human MSLN antigen [2], the Kd stood at 10.2 nM.
